From article PMC3547847, “A Newly Uncovered Group of Distantly Related Lysine Methyltransferases Preferentially Interact with Molecular Chaperones to Regulate Their Activity” (PLoS Genetics, 2013)

Tests used:
Assay in all cases: pull-down; 500 ng GST-tagged METTL21D with 100 ng His-tagged protein and Glutathione Sepharose 4B beads, 1 hour at 4°C, 50 mM NaCl, 50 mM HEPES-KOH pH 7.6, 0.1% NP-40, 0.5% charcoal-stripped FBS; bound His-tagged proteins detected by anti-6X His Western blot; AdoMet or AdoHcy present in Figure 6E; VCP and ASPSCR1 also added together (more binding)
Details in all cases: both partners purified
[1] = target: T1, ASPSCR1-His (human, UniProt Q9BZE9 1-553)
T1 construct: ASPSCR1/UBXD9, human; also called full-length ASPSCR1; His-tagged ASPSCR1; source: E. coli One Shot BL21 Star (DE3), purified (Ni-NTA Agarose)
T1 sequence (looked up): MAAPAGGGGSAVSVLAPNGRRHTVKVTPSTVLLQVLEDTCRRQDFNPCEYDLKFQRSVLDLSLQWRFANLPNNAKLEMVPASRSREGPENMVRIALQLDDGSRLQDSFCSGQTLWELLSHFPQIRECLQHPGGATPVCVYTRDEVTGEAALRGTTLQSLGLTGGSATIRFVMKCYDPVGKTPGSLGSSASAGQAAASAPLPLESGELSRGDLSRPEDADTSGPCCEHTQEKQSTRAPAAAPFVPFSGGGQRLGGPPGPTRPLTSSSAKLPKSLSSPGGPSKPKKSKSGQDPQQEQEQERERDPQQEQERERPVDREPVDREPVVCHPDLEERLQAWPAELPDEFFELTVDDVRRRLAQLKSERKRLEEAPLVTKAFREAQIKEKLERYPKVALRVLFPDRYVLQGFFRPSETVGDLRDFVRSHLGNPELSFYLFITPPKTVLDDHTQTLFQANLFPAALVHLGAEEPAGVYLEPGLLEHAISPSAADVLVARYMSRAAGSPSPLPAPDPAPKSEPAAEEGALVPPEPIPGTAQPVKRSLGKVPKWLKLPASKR

[2] = target: T2, VCP-His R155H (human, UniProt P55072 1-806, R155H)
T2 construct: VCP/p97, human, with the IBMPFD- and ALS-linked substitution R155H; also called VCP mutant R155H; source: E. coli One Shot BL21 Star (DE3), purified (Ni-NTA Agarose)
T2 sequence (P55072 whole entry R155H): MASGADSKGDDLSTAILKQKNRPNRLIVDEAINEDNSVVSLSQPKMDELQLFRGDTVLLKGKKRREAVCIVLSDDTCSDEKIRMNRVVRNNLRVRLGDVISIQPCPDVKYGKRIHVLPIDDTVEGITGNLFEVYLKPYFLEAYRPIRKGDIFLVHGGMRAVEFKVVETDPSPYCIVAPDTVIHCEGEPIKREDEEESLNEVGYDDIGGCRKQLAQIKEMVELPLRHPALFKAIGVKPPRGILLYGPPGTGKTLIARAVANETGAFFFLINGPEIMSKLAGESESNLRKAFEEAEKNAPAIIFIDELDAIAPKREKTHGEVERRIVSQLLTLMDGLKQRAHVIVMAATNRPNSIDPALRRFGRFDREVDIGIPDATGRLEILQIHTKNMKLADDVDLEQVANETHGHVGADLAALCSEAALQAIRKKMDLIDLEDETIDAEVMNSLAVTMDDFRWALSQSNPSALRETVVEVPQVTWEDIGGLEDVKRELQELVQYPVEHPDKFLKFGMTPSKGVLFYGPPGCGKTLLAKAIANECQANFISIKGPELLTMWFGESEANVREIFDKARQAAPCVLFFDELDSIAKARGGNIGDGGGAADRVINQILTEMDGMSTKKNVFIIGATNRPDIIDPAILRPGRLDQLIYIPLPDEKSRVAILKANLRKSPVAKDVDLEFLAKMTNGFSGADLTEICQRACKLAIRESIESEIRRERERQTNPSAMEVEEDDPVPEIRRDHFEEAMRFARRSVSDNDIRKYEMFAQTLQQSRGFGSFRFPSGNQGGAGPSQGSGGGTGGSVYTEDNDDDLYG

[3] = target: T3, VCP-His (human, UniProt P55072 1-806)
T3 construct: VCP/p97, human; also called His-tagged VCP; wild-type VCP-His; source: E. coli One Shot BL21 Star (DE3), purified (Ni-NTA Agarose)
T3 sequence (P55072 whole entry): as the sequence (P55072 whole entry R155H) above, with H155R counted along it

[4] = target: T4, C-terminal fragment of ASPSCR1 (residues 280–553) (human, UniProt Q9BZE9 280-553)
T4 construct: ASPSCR1/UBXD9, human, residues 280-553; also called C-terminal half of ASPSCR1; source: E. coli One Shot BL21 Star (DE3), purified (Ni-NTA Agarose)
T4 sequence (looked up): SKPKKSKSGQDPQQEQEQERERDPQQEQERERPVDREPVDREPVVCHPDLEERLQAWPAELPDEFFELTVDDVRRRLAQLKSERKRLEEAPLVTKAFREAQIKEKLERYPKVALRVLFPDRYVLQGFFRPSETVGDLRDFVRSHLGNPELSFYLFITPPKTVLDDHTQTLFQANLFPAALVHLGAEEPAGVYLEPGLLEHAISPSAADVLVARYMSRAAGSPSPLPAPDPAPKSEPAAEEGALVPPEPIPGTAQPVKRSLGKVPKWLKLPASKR

[5] = target: T5, VCP-His R191Q (human, UniProt P55072 1-806, R191Q)
T5 construct: VCP/p97, human, with the IBMPFD- and ALS-linked substitution R191Q; also called VCP mutant R191Q; source: E. coli One Shot BL21 Star (DE3), purified (Ni-NTA Agarose)
T5 sequence (P55072 whole entry R191Q): as the sequence (P55072 whole entry R155H) above, with H155R, R191Q counted along it

[6] = target: T6, VCP-His R159G (human, UniProt P55072 1-806, R159G)
T6 construct: VCP/p97, human, with the ALS-linked substitution R159G; also called VCP mutant R159G; source: E. coli One Shot BL21 Star (DE3), purified (Ni-NTA Agarose)
T6 sequence (P55072 whole entry R159G): as the sequence (P55072 whole entry R155H) above, with H155R, R159G counted along it

Measured: binding result

B1: GST-METTL21D (enzyme, human, UniProt Q9H867 1-229, looked up)
chain: MADTLESSLEDPLRSFVRVLEKRDGTVLRLQQYSSGGVGCVVWDAAIVLSKYLETPEFSGDGAHALSRRSVLELGSGTGAVGLMAATLGADVVVTDLEELQDLLKMNINMNKHLVTGSVQAKVLKWGEEIEGFPSPPDFILMADCIYYEESLEPLLKTLKDISGFETCIICCYEQRTMGKNPEIEKKYFELLQLDFDFEKIPLEKHDEEYRSEDIHIIYIRKKKSKFPS
notes: METTL21D, human; also called GST-tagged METTL21D; wild type METTL21D; source: E. coli One Shot BL21 Star (DE3), purified (Glutathione Sepharose 4B)
binds: all assays above
